Reference: US12331106B2, “Anti-angiopoietin-2 antibodies that induce Tie2 activation” (Institute for Basic Science, priority 2018, dated 2025)

T1: hAng2 (Homo sapiens, UniProt O15123)
T1 sequence (O15123 19-496): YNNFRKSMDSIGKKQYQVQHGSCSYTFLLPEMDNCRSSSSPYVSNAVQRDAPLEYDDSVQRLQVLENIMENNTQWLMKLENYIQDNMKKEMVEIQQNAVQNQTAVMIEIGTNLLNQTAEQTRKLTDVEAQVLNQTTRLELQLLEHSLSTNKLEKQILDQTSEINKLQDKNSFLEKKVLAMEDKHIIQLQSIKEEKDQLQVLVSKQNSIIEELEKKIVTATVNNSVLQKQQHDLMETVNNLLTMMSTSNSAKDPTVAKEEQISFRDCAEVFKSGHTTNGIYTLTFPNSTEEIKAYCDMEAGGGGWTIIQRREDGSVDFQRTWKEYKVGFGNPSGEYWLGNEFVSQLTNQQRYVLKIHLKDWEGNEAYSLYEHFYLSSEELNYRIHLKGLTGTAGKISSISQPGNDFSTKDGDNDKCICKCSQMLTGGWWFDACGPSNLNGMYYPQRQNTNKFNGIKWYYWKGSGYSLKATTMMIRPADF


Tests used:
[1] = system: LLC (Lewis Lung Carcinoma) tumor; assay: Tumor growth inhibition in LLC subcutaneous model; assay type: in vivo, C57BL/6 mice; conditions: LLC s.c.; antibody 10 mg/kg i.p. every 2-3 days; Cpt 3 mg/kg i.p. once
Method: 2C8H11 anti-Ang2 antibody was tested for its ability to inhibit tumor growth in LLC (Lewis Lung Carcinoma) cell line tumor model. Specifically, LLC cell line (ATCC) was cultured in DMEM (GIBCO™) supplemented with 10% FBS (GIBCO™). LLC cells (1×10^6 in 100 μl of PBS) were subcutaneously injected into 6˜8-week-old C57BL/6 mice (Jackson Laboratory) which were anesthetized with a mixture of Ketamine and Xylazine. When the volume of the tumors reached 50˜100 mm^3, the mice were intraperitoneally administered with 10 mg/kg of 2C8H11 antibody every 2˜3 days. Cisplatin (Cpt) was injected intraperitoneally once at a dose of 3 mg/kg in both monotherapy and combination therapy groups. The changes in tumor volume was tracked over the following days. Tumor volume (V) was measured using the formula: V=(width^2×length)/2 V=(width^2×length)/2
The experiment was performed in 4 groups: Fc (control group), Fc+Cpt group, 2C8H11 group, and 2C8H11+Cpt group. […] Meanwhile, combined treatment with 2C8H11 and Cpt delayed tumor growth by 47% compared with Fc.

[2] = system: downstream signaling of the Tie2 receptor (Akt phosphorylation) in HUVECs; assay: Akt phosphorylation in HUVECs by humanized anti-Ang2 antibodies (immunoblot); assay type: cell-based, human; conditions: hAng2 1 μg/ml, 30 min, antibody 0.5 μg/ml, maintained until 50 μg/ml
Method: To investigate whether the humanized anti-Ang2 antibodies induce the downstream signaling of the Tie2 receptor in endothelial cells, HUVECs (LONZA™) were treated with human Ang2 protein together with humanized anti-Ang2 antibody. Then, the level of Akt phosphorylation, the main downstream signaling protein of Tie2 receptor was measured by immunoblotting. To compare the degree of Akt activation, cells were treated with full-length hAng2 (R&D® Systems) alone or antibody alone in the experiment.
Specifically, HUVEC cells (1×10^5 cells/ml) were cultured in EGM-2 (LONZA™) at 37° C. in 60 mm culture dish. Cells of 90% confluency were incubated with EBM-2 (LONZA™) for 4 hrs. The serum-starved HUVECs were treated with the mixture of anti-Ang2 antibody and hAng2 protein (1 μg/ml, R&D® Systems), and further incubated for 30 min. The cells were washed with cold PBS, treated with lysis buffer, and lysed at 4° C. for 20 min. Then, the cell lysates were prepared by centrifugation at 13000 rpm for 15 min. 5× SDS sample buffer was added to the cell lysate and the mixture was boiled at 95° C. for 5 min. Then, the mixture was subjected to SDS-PAGE and subsequent Western blotting.
To investigate the phosphorylation of Akt, the membrane was blocked with 5% skim milk-containing TBST for 1 hr at RT, and incubated with anti-phospho-Akt antibody (S473) at 4° C. for about 8 hrs. […]

[3] = system: Tie2 receptor clustering / FOXO1 translocation in HUVECs; assay: Tie2 clustering and FOXO1 translocation in HUVECs (immunofluorescence); assay type: cell-based, human; conditions: HUVECs, 30 min
Method: Tie2 clustering at cell-cell junction area and FOXO1 translocation from nucleus to cytosol by anti-Ang2 antibodies were examined in HUVECs by immunofluorescence. Specifically, HUVECs were seeded on 8 well slide chamber (Lab-Tek™ II) and maintained in EGM-2 medium for 2-3 days. At 100% confluence, the cells were serum starved with EBM-2 medium for 4 hrs and then treated with 1 μg/ml anti-Ang2 antibodies together with 1 μg/ml of hAng2 for 30 min. Thereafter, the cells were fixed with 4% formaldehyde in PBS at room temperature (RT) for 10 min, permeabilized with 0.1% TRITON™ X-100 (non-ionic polyoxyethylene surfactant) in PBS, blocked with 1% BSA in PBS at RT for 60 min, and incubated with primary antibodies at RT for 1 hr. The primary antibodies for hTie2, FOXO1, and Human Fc were used. The cells were then incubated with secondary antibodies (Invitrogen) in the dark at RT for 1 hr and mounted with VECTASHIELD® mounting medium with DAPI (Vector Labs, antifade mounting media optimized for immunofluorescence applications). Images were taken with a laser scanning confocal microscope (LSM880, Carl Zeiss).
2C8H11-induced Tie2 clustering and FOXO1 translocation was examined in a time-course study (from 10 min to 240 min). […] 6-4: Inhibition of Vascular Permeability by Humanized Anti-Ang2 Antibodies

hAng2 = biological target: T1, hAng2; assay: OCTET affinity of humanized anti-Ang2 antibodies against hAng2; assay type: binding; conditions: humanized 4B9 antibodies (IgG1) fixed on AR2G biosensor; hAng2 50-0 nM
HUVEC monolayer = assay: In vitro vascular permeability (leakage) assay, TNF-α induced, FITC-dextran; assay type: cell-based, human; conditions: HUVECs; pre-treatment antibody 1 μg/ml with Ang2 1 μg/ml 30 min; TNF-α 100 ng/ml 22 hr
Method: Vascular leakage assay was carried out in HUVECs using In Vitro Vascular Permeability Assay Kit (Millipore®) according to the manufacturer's instruction. HUVECs were seeded into the insert of the transwell plate and cultured for 3 days for 100% confluence. The HUVECs were pre-incubated with Ang2 (1 μg/ml), Ang2 (1 μg/ml) together with Control, 2C8H11 or 4B9H11 antibody (1 μg/ml) for 30 min, and then TNF-α (100 ng/ml) was added, and the cells were incubated at 37° C. for 22 hr. FITC-dextran was added to the upper chamber and incubated for 20 min. Passage of FITC-dextran though the HUVEC monolayer was measured by a fluorescence reader at excitation and emission wavelengths of 485 and 535 nm, respectively.

Tie2 receptor = assay: Tie2 phosphorylation in HUVECs (immunoprecipitation/Western); assay type: cell-based, human; conditions: antibody 0.02-50 μg/ml with hAng2 1 μg/ml, 30 min
Method: Ang2 binds to the Tie2 receptor and acts as a weak agonist or antagonist. The anti-Ang2 antibody developed in this invention binds to Ang2 to induce Ang2-antibody complexes, further causing clustering of Tie2 receptors and consequently enhancing activation of Tie2 receptor. Experiments were conducted to analyze the effect of anti-Ang2 antibody on Tie2 phosphorylation using HUVECs.
Specifically, HUVECs (LONZA™) were cultured in EGM-2 (LONZA™) at 37° C. and 5% CO2 concentration in a 100 mm culture dish. At 80-90% confluency, the cells were changed to EBM-2 (LONZA™) medium for 2 hrs˜ 6 hrs for serum starvation. Humanized anti-Ang2 antibodies at various concentrations (0.02 μg/ml to 50 μg/ml) were mixed with hAng2 protein (1 μg/ml, R&D® Systems) for 30 min. Then, the mixtures were treated with the cultured cells and further incubated for 30 min. The cells were washed twice with cold PBS and then lysed in 1000 μl of lysis buffer (10 mM Tris-Cl pH 7.4, 150 mM NaCl, 5 mM EDTA, 10% glycerol, 1% TRITON™ X-100 (non-ionic polyoxyethylene surfactant), protease inhibitor, phosphatase inhibitor) and then lysed at 4° C. for 60 min. Cell extracts were prepared and centrifuged at 12,000 rpm for 10 min. The supernatant was quantitated by bicinchoninic (BCA) assay.
To 0.5 mg of cell lysate, 1 μg of Tie2 antibody (R&D® Systems, AF313) was added and incubated overnight at 4° C. […]

| Akt phosphorylation [2] | FOXO1 translocation from nucleus to cytosol ([3]; compared to serum-starved control) | Kdis (hAng2) | Kon (hAng2) | Molecule | tumor growth inhibition compared with Fc [1] | co-localization of antibody with Tie2 receptor ([3]; anti-human Fc staining) | Tie2 translocation/clustering to cell-cell contact ([3]; antibodies 1 μg/ml with hAng2 1 μg/ml) | vascular leakage induced by TNF-α (passage of FITC-dextran) (HUVEC monolayer) | phosphorylation of Tie2 (Tie2 receptor) |
| --- | --- | --- | --- | --- | --- | --- | --- | --- | --- |
| – | – | – | – | N.N.[Cl][Pt][Cl] [Fc+Cpt, Cisplatin, reference compound] | similar | – | – | – | – |
| increased markedly | markedly disappeared in nucleus | 1.58e-06 s⁻¹ | 92900 M⁻¹ s⁻¹ | 4B9H11: humanized anti-Ang2 human IgG1 antibody from mouse 4B9; VH SEQ ID NO: 43, VL SEQ ID NO: 44 (antibody, V domains shown, human IgG1 constant regions; VH; VL) VH: QVQLVESGGGLVKPGGSLRLSCAASGFTFSDYYMYWIRQAPGKGLEWVSTISVGGSFTYYPDSVKGRFTISRDNAKNSLYLQMNSLRAEDTAVYYCARDWGLRPWFVYWGQGTLVTVSS VL: DIQMTQSPSSLSASVGDRVTITCKASQDVSTAVAWYQQKPGKAPKLLIYWASTRHTGVPSRFSGSGSGTDFTLTISSLQPEDFATYYCQQHYSTPPTFGQGTKVEIK | – | co-localized with clustered Tie2 receptor at cell-cell contact and endocytosed Tie2 receptor in cytosol | induced Tie2 translocation/clustering to cell-cell contact | significantly inhibited | strongly induced in a dose-dependent manner |
